Results on one molecule are retold here after PMC5605572, “Phosphorylation of Suppressor of Hairless impedes its DNA-binding activity”.

Holding throughout (details): protein: ivt; label: radiolabelled (EMSA); 5' overhang 4 nt on each strand
On the technique in general: A gel shift assay detects complexes by their altered migration in electrophoresis.

Data set [1] deals with Su(H) R266H (Drosophila melanogaster, UniProt P28159 1-594, R266H). Put plainly: EMSA; EMSA: 10 mM Tris-HCl pH 7.5, 50 mM NaCl, 1 mM EDTA, 0.0275 ug/ul salmon sperm DNA; ITC: 50 mM sodium phosphate pH 6.5, 150 mM NaCl, 10 C, 10 uM Su(H) in cell, 100 uM DNA in syringe.
Data set [2] has as its target Su(H) wt (Drosophila melanogaster, UniProt P28159 1-594). The experiment in a line: EMSA; self-competition with unlabelled oligo; EMSA: 10 mM Tris-HCl pH 7.5, 50 mM NaCl, 1 mM EDTA, 0.0275 ug/ul salmon sperm DNA; ITC: 50 mM sodium phosphate pH 6.5, 150 mM NaCl, 10 C, 10 uM Su(H) in cell, 100 uM DNA in syringe.
Data set [3] addresses Su(H) S269A (Drosophila melanogaster, UniProt P28159 1-594, S269A). The experiment in a line: EMSA; no obvious difference from wt; self-competition with unlabelled oligo; EMSA: 10 mM Tris-HCl pH 7.5, 50 mM NaCl, 1 mM EDTA, 0.0275 ug/ul salmon sperm DNA; ITC: 50 mM sodium phosphate pH 6.5, 150 mM NaCl, 10 C, 10 uM Su(H) in cell, 100 uM DNA in syringe.

Su(H) wt, sequence (P28159 whole entry): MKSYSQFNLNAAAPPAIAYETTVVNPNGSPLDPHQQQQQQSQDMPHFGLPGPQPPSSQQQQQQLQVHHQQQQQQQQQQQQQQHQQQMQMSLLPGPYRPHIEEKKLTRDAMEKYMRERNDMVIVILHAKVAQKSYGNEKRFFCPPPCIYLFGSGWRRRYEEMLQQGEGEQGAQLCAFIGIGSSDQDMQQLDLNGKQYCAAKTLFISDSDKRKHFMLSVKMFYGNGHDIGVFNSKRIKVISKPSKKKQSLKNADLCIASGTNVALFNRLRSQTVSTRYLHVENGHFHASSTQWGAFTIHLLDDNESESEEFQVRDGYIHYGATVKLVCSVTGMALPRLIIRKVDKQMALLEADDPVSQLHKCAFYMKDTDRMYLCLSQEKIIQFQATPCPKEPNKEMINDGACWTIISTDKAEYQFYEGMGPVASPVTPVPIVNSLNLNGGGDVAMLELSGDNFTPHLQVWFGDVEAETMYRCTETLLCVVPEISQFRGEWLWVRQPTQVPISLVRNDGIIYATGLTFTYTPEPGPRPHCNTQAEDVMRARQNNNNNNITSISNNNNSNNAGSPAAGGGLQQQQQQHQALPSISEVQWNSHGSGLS
Su(H) S269A, sequence (P28159 whole entry S269A): as the sequence (P28159 whole entry) above, with S269A counted along it
Su(H) R266H, sequence (P28159 whole entry R266H): as the sequence (P28159 whole entry) above, with R266H counted along it

B1: E(spl)m8-S1 (dsDNA)
DNA 1: TTGGGTGGCTCGTGGCGTGGGAACCGAGCTGAAAG
DNA 2: GGTTCTTTCAGCTCGGTTCCCACGCCACGAGCCAC
B1: the binding result is “no binding” in data set [1], “binds” in data set [2] and “binds” in data set [3].
